Laboratory results taken from patent US20230173039A1.

Target: amyloid beta-protein 40 (Aβ40) (human) (UniProt P05067)

Aβ40 content by Tricine-SDS-PAGE with quantitative scanning (solvent control defined as 100%): 74.8%
Substance: plasminogen isolated and purified from plasma of a human donator (enzyme)
